{"source": "patent US20060159616", "key": {"[1]": {"molecular_target": "T1, F-S-R-AMC fluorogenic substrate", "T1 chain": "FSR"}, "[2]": {"molecular_target": "T2, V-P-R-AMC fluorogenic substrate", "T2 chain": "VPR"}}}
{"protein": "recombinant hK13 protein (active form of human kallikrein 13, produced in Pichia pastoris) (protein) VLNTNGTSGFLPGGYTCFPHSQPWQAALLVQGRLLCGGVLVHPKWVLTAAHCLKEGLKVYLGKHALGRVEAGEQVREVVHSIPHPEYRRSPTHLNHDHDIMLLELQSPVQLTGYIQTLPLSHNNRLTPGTTCRVSGWGTTTSPQVNYPKTLQCANIQLRSDEECRQVYPGKITDNMLCAGTKEGGKDSCEGDSGGPLVCNRTLYGIVSWGDFPCGQPDRPGVYTRVSRYVLWIRETIRKYETQQQKWLKGPQ", "values": [{"measurement": "fluorescence of the substrate FSR-AMC, 10 ng of hK13 (substrate alone 1.1 arbitrary units)", "setting": "[1]", "result": "to 1.9 arbitrary units (10 ng of hK13)"}, {"measurement": "fluorescence of the substrate FSR-AMC, 100 ng of hK13 (substrate alone 1.1 arbitrary units)", "setting": "[1]", "result": "to 6.9 arbitrary units (100 ng of hK13)"}, {"measurement": "fluorescence of the substrate FSR-AMC, 160 ng of hK13 (substrate alone 1.1 arbitrary units)", "setting": "[1]", "result": "to 14.5 arbitrary units (160 ng of hK13)"}, {"measurement": "fluorescence of the substrate VPR-AMC, 10 ng of enzyme (substrate alone 0.5 arbitrary units)", "setting": "[2]", "result": "to 1.9 arbitrary units (10 ng of enzyme)"}, {"measurement": "fluorescence of the substrate VPR-AMC, 100 ng of enzyme (substrate alone 0.5 arbitrary units)", "setting": "[2]", "result": "to 13.9 arbitrary units (100 ng of enzyme)"}, {"measurement": "fluorescence of the substrate VPR-AMC, 160 ng of enzyme (substrate alone 0.5 arbitrary units)", "setting": "[2]", "result": "to 35.5 arbitrary units (160 ng of enzyme)"}]}
